As usually defined, the stoichiometry N is a count of units in the complex or per binding partner.

Sequences and labels used below:
B3: FLAG-tagged Rsph16 (natural protein, mouse, UniProt Q80Y75 1-316, looked up)
chain: MGLDYYAVLQVTRNSEDAQIKKAYRKLALKNHPLKSSEPGAPEIFKQIAEAYDVLSDPVKRGIYDKFGEEGLKGGIPLEFGSQTPWTTGYVFHGNPDKVFHEFFGGDNPFSEFFDAEGNDIDLNFGGLWGRGVQKQDPPIERDLYLSLEDLFFGCTKKIKISRRVLNEDRYSSTIKDKILTIDVRPGWRQGTRITFEKEGDQGPNIIPADIIFIVKEKLHPRFRREHDNLFFVYPIPLGKALTCCTVEVKTLDDRLLNIPINDIVHPKYFKIVPGEGMPLPENPSKKGDLFIFFDIQFPTRLTPQKKQMLRQALLT
notes: Rsph16 (homologue of HSP40, DnaJ family), mouse, NM_153527; full-length gene amplified from cDNAs of mouse ependymal cells, in pcDNA3.4; Stands as a homodimer (the arch bridge Rsph16-Rsph16') in both the head-neck monomer and the head-neck dimer; not shown: 3xFLAG, N-terminal, kept
B4: Rsph3b (natural protein, mouse)
chain: MTDRNPRTAEASGLYTYSSRPRAVACQRRRHRDSILQPVEEPMSYGNIMYDRRVIRGNTYALPTGQVPGQPDPLELQRQQQARRRALARKRAQEQLKPRTPEPVEGRKHVDIQTELYLEEIADRIVEVDMECQTDAFLDRPPTPLFIPAKTGKDVATQILGGELFDFDLEVKPMLEVLVGKTIEQSLLEVMEEEELANLRARQYAYEEIRNVELAEVQRLEEQERRHREEKERRKKQQWEIVHKRNETLQKISALIFARQYLANLLPSVFDKLRNSGFFYDPIERDIEVGFLPWLMNEVEKSMEHSMVGRTVLDMLIRDVVERRINDYEHKEAMPPGQKTNVINGPNTVTDPSVTTLHTQKPVLDRVSSQPAPSQERKPVEEGGHLMAE
notes: Rsph3b (radial spoke head protein 3 homolog B), mouse, NM_001083945; non-tagged, in pcDNA3.4; Non-tagged

What all share (assay): cryo-EM structure; RS head-neck complex co-expressed in HEK293F, purified by Strep-Tactin then anti-FLAG beads, cross-linked by GraFix (0-0.1% glutaraldehyde, 10-40% glycerol, 4 °C); monomer map 3.28 Å, dimer map 3.57 Å
The data set “FLAG-tagged Rsph16” concerns the target B3. The conditions noted are these: both partners purified.
For the data set “Rsph3b”, the target named is B4. The conditions noted are these: both partners purified.
Another data set addresses T1, Rsph4a (mouse, UniProt Q8BYM7 1-716).
T1 construct: Rsph4a (radial spoke head protein 4 homolog A), mouse, NM_001162957; Two copies stand in each RS head
T1 sequence: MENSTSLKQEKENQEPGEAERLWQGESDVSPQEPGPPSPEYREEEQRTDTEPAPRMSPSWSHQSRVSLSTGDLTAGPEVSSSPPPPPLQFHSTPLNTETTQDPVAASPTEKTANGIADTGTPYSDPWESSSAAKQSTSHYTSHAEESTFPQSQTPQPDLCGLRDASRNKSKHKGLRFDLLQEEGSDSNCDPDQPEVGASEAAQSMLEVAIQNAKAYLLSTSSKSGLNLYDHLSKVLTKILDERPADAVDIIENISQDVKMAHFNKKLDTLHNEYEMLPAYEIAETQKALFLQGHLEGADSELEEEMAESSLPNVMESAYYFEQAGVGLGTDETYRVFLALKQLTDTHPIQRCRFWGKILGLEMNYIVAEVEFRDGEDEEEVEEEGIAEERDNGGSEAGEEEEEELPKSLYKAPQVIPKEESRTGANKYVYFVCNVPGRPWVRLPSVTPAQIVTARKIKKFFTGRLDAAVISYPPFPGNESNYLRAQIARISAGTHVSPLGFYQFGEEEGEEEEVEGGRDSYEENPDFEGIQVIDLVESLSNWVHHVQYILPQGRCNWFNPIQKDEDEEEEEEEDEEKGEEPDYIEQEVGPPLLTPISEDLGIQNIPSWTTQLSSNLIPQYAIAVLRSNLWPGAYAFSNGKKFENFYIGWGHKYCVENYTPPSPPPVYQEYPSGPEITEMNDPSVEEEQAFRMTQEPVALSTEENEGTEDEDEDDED
Conditions: both partners purified.

Data set [1] concerns the molecule itself.

B1: Rsph23 (natural protein, mouse)
chain: MEVSMPLPQIYVEKTLALIKPDVVDKEEEIQDIILGSGFTIIQRRKLHLSPEHCSNFYVEQYGKMFFPNLTAYMSSGPLVAMILARHKAISYWKELMGPSNSLVAKETHPDSLRAIYGTDELRNALHGSNDFAASEREIRFMFPAVIIEPIPIGQAAKDYINLYVAPTLLQGLTELCKEKPPDPYLWLADWLMKNNPNKPKLCHFPVTEEP
notes: Rsph23, mouse, NM_080637
Turning to B1, the binding result in the data set with FLAG-tagged Rsph16 and with Rsph3b was “binds” throughout.

B2: Rsph9 (natural protein, mouse)
chain: MDADSLLLSLELASGSGQGLSPDRRASLLTSLMLVKRDYRFARVLFWGRILGLVADYYIAQGLSEDQLAPRKTLYSLNCTEWSLLPPATEEMAMQISVVSGRFMGDPSHEYEHTELQKVNEGEKVFDEEVVVQIKEETRLVSIIDQIDKAVAIIPRGALFKTPFGVTHVNRTFEGLPLSEVRKLSSYFHFREAIDLKNKTLLEKSDLEPSLDFLDSLEYDIPRGSWSIQMERGNALVVLRSLLWPGLTFYHAPRTKNYGYIYVGTGEKNMDLPFML
notes: Rsph9 (radial spoke head protein 9 homolog), mouse, NM_029338; non-tagged, in pcDNA3.4; Two copies stand in each RS head; Non-tagged
Take B2: the binding result with Rsph4a and with FLAG-tagged Rsph16 was “binds” each time.

Turning to B3, in data set [1], the “stoichiometry N” value was 2.

Turning to B4, the binding result with Rsph4a is “binds”.

Values taken from paper PMC10774353, “Multi-scale structures of the mammalian radial spoke and divergence of axonemal complexes in ependymal cilia” (Nature Communications, 2024).
